From the supplement of paper PMC9112550, “Optimization of the antimicrobial peptide Bac7 by deep mutational scanning” (BMC Biology, 2022)

Test system: Escherichia coli TOP10
Experiment: shrunken log2 fold change of peptide-encoding DNA abundance (4.5 h post-induction vs induction); higher = less antimicrobial activity (less host growth inhibition)
Conditions: time post-induction: 4.5 h; library: site-saturation at positions 5, 18, 19, 20
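Further: peptides expressed intracellularly from a pBAD plasmid library in pooled LB shake-flask culture, induced with 0.3% L-arabinose, DNA abundance read by NGS, three biological replicates, DESeq2 with apeglm shrinkage.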

| Sequence | shrunken log2 fold change |
| --- | --- |
| RRIRPRPPRLPRPRPRPFLLPRP | -0.516 |
| RRIRIRPPRLPRPRPRPCTAPRP | -0.285 |
| RRIRSRPPRLPRPRPRPQFIPRP | -1.79 |
| RRIRCRPPRLPRPRPRPVGTPRP | -0.149 |
| RRIRIRPPRLPRPRPRPFIGPRP | -0.227 |
| RRIRRRPPRLPRPRPRPFDRPRP | 0.542 |
| RRIRTRPPRLPRPRPRPRPMPRP | 0.184 |
| RRIRNRPPRLPRPRPRPLYCPRP | -0.793 |
| RRIRGRPPRLPRPRPRPEFLPRP | 1.01 |
| RRIRARPPRLPRPRPRPNHTPRP | -0.605 |
| RRIRYRPPRLPRPRPRPKHWPRP | 0.266 |
| RRIRSRPPRLPRPRPRPPHQPRP | 0.27 |
| RRIRVRPPRLPRPRPRPMCWPRP | 0.00173 |
| RRIRQRPPRLPRPRPRPTMDPRP | 0.0884 |
| RRIRNRPPRLPRPRPRPVNIPRP | -0.435 |
| RRIRGRPPRLPRPRPRPKRRPRP | 1.3 |
| RRIRWRPPRLPRPRPRPLGYPRP | -0.24 |
| RRIRKRPPRLPRPRPRPDTGPRP | -0.0244 |
| RRIRCRPPRLPRPRPRPRVWPRP | 0.747 |
| RRIRNRPPRLPRPRPRPPGPPRP | 0.419 |
| RRIRFRPPRLPRPRPRPQLMPRP | -0.32 |
| RRIRNRPPRLPRPRPRPCFRPRP | -0.241 |
| RRIRFRPPRLPRPRPRPVGRPRP | 0.382 |
| RRIRWRPPRLPRPRPRPNDEPRP | 0.0507 |
| RRIRRRPPRLPRPRPRPDLIPRP | 0.0201 |

| Sequence | shrunken log2 fold change |
| --- | --- |
| RRIRMRPPRLPRPRPRPCYMPRP | -0.605 |
| RRIRNRPPRLPRPRPRPPFLPRP | -0.0418 |
| RRIRARPPRLPRPRPRPSYIPRP | -0.647 |
| RRIRHRPPRLPRPRPRPQVNPRP | -0.273 |
| RRIRVRPPRLPRPRPRPFLDPRP | -0.187 |
| RRIRVRPPRLPRPRPRPASTPRP | -0.311 |
| RRIRGRPPRLPRPRPRPKATPRP | 1.52 |
| RRIRMRPPRLPRPRPRPGEDPRP | 0.118 |
| RRIRKRPPRLPRPRPRPIPPPRP | 0.385 |
| RRIRARPPRLPRPRPRPDSWPRP | 0.508 |
| RRIRQRPPRLPRPRPRPCANPRP | 0.00875 |
| RRIRDRPPRLPRPRPRPSLLPRP | 0.05 |
| RRIRTRPPRLPRPRPRPLFHPRP | -0.193 |
| RRIRARPPRLPRPRPRPGGAPRP | 0.76 |
| RRIRYRPPRLPRPRPRPHREPRP | -0.00804 |
| RRIRGRPPRLPRPRPRPTKFPRP | 0.458 |
| RRIRYRPPRLPRPRPRPIPAPRP | -0.0717 |
| RRIRVRPPRLPRPRPRPHYCPRP | -0.186 |
| RRIRYRPPRLPRPRPRPQMYPRP | -0.286 |
| RRIRMRPPRLPRPRPRPMYPPRP | -0.00194 |
| RRIRGRPPRLPRPRPRPTLVPRP | 1.87 |
| RRIRNRPPRLPRPRPRPPCWPRP | 0.231 |
| RRIRERPPRLPRPRPRPLIQPRP | -0.28 |
| RRIRYRPPRLPRPRPRPHPQPRP | -0.0957 |
| RRIRARPPRLPRPRPRPKPLPRP | 0.455 |

| Sequence | shrunken log2 fold change |
| --- | --- |
| RRIRWRPPRLPRPRPRPYPGPRP | -0.0967 |
| RRIRGRPPRLPRPRPRPCEEPRP | 0.742 |
| RRIRDRPPRLPRPRPRPKGQPRP | 0.116 |
| RRIRRRPPRLPRPRPRPTCEPRP | 0.295 |
| RRIRARPPRLPRPRPRPNFVPRP | -0.122 |
| RRIRWRPPRLPRPRPRPMRKPRP | 1.4 |
| RRIRERPPRLPRPRPRPGTQPRP | -0.0335 |
| RRIRTRPPRLPRPRPRPHRRPRP | 0.0892 |
| RRIRTRPPRLPRPRPRPTDSPRP | -0.106 |
| RRIRARPPRLPRPRPRPIMGPRP | 0.0143 |
| RRIRKRPPRLPRPRPRPYATPRP | 0.0656 |
| RRIRVRPPRLPRPRPRPSLRPRP | 0.133 |
| RRIRERPPRLPRPRPRPEKGPRP | -0.0493 |
| RRIRKRPPRLPRPRPRPWQAPRP | 0.000778 |
| RRIRFRPPRLPRPRPRPMPTPRP | 0.432 |
| RRIRVRPPRLPRPRPRPHKNPRP | -0.301 |
| RRIRMRPPRLPRPRPRPYIFPRP | -0.265 |
| RRIRFRPPRLPRPRPRPQNSPRP | -0.568 |
| RRIRGRPPRLPRPRPRPQHQPRP | 0.524 |
| RRIRNRPPRLPRPRPRPWSRPRP | 0.14 |
| RRIRTRPPRLPRPRPRPLHTPRP | -0.161 |
| RRIRLRPPRLPRPRPRPDSVPRP | 0.0031 |
| RRIRKRPPRLPRPRPRPSAIPRP | -0.00962 |
| RRIRMRPPRLPRPRPRPDTLPRP | -0.122 |
| RRIRMRPPRLPRPRPRPWNTPRP | 0.000609 |
